Experiments:
[1] = target: Puromycin-sensitive aminopeptidase, wild type, with C-terminal polyhistidine sequence (kinetic studies) (human) (UniProt P55786); experiment: competitive inhibition of enzyme activity (Dixon plots); apparent Ki from inhibition of Ala-4MβNA cleavage at increasing peptide concentrations; 20 mM HEPES pH 7.0, 2 mM BME, 37°C; 20 μM (PSA^wt) or 100 μM (PSA^F433A) Ala-4MβNA; triplicate
[2] = target: Puromycin-sensitive aminopeptidase F433A mutant, with C-terminal polyhistidine sequence (human) (UniProt P55786); experiment: as above
Chain of Puromycin-sensitive aminopeptidase F433A mutant, with C-terminal polyhistidine sequence (human) (P55786 whole entry F433A): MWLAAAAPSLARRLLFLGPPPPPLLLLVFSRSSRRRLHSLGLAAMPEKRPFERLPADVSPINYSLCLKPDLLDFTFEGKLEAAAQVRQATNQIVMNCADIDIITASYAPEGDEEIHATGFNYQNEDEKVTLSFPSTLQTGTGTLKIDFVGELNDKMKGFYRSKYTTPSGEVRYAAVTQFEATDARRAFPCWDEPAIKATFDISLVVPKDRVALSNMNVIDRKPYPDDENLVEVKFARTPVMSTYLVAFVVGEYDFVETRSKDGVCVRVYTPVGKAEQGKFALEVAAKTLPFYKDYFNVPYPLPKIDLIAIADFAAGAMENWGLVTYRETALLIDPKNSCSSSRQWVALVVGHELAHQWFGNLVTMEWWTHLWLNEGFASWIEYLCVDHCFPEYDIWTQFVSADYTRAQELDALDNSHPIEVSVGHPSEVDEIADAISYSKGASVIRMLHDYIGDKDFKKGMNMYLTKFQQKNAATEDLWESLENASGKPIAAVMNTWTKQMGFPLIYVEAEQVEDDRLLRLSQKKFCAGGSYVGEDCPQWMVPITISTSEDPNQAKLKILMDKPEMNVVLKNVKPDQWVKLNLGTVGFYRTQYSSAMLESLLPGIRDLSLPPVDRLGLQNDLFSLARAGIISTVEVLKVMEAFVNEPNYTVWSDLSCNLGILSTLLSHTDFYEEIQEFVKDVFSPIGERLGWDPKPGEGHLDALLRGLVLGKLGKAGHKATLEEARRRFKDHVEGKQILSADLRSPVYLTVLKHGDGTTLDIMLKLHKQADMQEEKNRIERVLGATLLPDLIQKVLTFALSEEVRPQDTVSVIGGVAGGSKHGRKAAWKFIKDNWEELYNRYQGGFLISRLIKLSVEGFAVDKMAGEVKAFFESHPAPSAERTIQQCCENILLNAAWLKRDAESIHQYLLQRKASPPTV

Chain of Puromycin-sensitive aminopeptidase, wild type, with C-terminal polyhistidine sequence (kinetic studies) (human) (P55786 whole entry): as the sequence (P55786 whole entry F433A) above, with A433F counted along it

Ki [1]: 0.44 µM
Ki [2]: 2.6 µM
Substance: Dynorphin A(1–17) (peptide)

— article PMC10343166
